Measured values as given in patent publication US6183967, “Nucleic acid ligand inhibitors to DNA polymerases” (NeXstar Pharmaceuticals).

Experiments:
[1] = biological target: T1, Taq DNA polymerase (Thermus aquaticus, UniProt P19821 P19821:1-832); assay: FP filter; printed as >>1000; 55C; IT50 <40C; details: tags: rTaq, 94 kDa, Roche Molecular Systems; label: end-labeled
Protocol: (§1) Binding interactions of individual sequences with Taq polymerase was measured by nitrocellulose filter binding at 55° C. […] Clones 6 (SEQ ID NO:78), 22 (SEQ ID NO:81) and 28 (SEQ ID NO:87) all show high-affinity binding to Taq polymerase at 55° C. as characterized by their K_d values in the low picomolar range.

[2] = biological target: T1, Taq DNA polymerase; assay: FP filter; 55C; IT50 41C; details: tags: rTaq, 94 kDa, Roche Molecular Systems; label: end-labeled
[3] = biological target: T1, Taq DNA polymerase; assay: FP filter; 55C; IT50 44.6C; details: tags: rTaq, 94 kDa, Roche Molecular Systems; label: end-labeled
[4] = biological target: T1, Taq DNA polymerase; assay: FP filter; Tm 51C; details: tags: rTaq, 94 kDa, Roche Molecular Systems; stem-loop
Protocol: Room Temperature. To assess the affinity of oligonucleotide libraries and individual ligands the nitrocellulose filter binding technique was used. Briefly, gel-purified ^32P ss-DNA pools labeled at the 5' end were suspended in the binding buffer, heated to 80° C., chilled on ice and then brought to room temperature. The DNA (5–10 pM) was then incubated for 15 minutes at room temperature with varying amounts of the target polymerase in 50 µL of the appropriate binding buffer containing 0.1 µg of tRNA and 0.01% hSA. The DNA concentrations were kept lower than 100 pM to ensure equilibrium in the presence of excess protein concentrations. […] The amount of DNA bound to the filters was quantitated by measuring the radioactivity of the filters by liquid scintillation counting. The quantity of DNA bound to filters in the absence of protein was used for background correction. […]
[1]The boxed region denotes the conserved sequence element with the predicted stem-loop structure identified in the Family I sequences; vertical lines signify Watson-Crick type base pairing; circles show an uncommon G-T base pair. [2]K_d values were measured by the nitrocellulose filter binding technique described in Example 1. [3]Melting transitions (T_m) were measured in a PCR buffer containing 10 mM Tris-HCl, 50 mM KCl, 2 mM MgCl_2, pH 8.3, at a 1° C./min temperature ramp.

[5] = biological target: T1, Taq DNA polymerase; assay: FP filter; 55C; IT50 53.7C; details: tags: rTaq, 94 kDa, Roche Molecular Systems; label: end-labeled
Protocol: as §1

[6] = biological target: T1, Taq DNA polymerase; assay: FP filter; Tris buffer 55C; 5 pM at 40C; Tricine 9.4 (40C), 116 (55C) pM; IT50 52C; details: tags: rTaq, 94 kDa, Roche Molecular Systems; label: end-labeled
Protocol: as §1
(§2) The binding analysis shown in FIGS. 4A–E were performed in the Tris buffer at 55° C. […] (Table 7).

[7] = biological target: T1, Taq DNA polymerase; assay: inhibition; 45C; details: tags: rTaq, 94 kDa, Roche Molecular Systems; label: end-labeled
Protocol: (§3) As set forth in Table 12, the $IT50$ values of truncated ligands TQH6-Tr, TQH22-Tr and TQH28-Tr were decreased by 5–9° C. upon truncation.
(§4) Measurement of $IC50$ Values. $IC50$ values (the concentration of inhibitor required to produce 50% of the product in the assay) were obtained using hairpin extension assays. In a typical inhibition assay, a 20 μL reaction contained either 0.25 (0.04) pmoles of Taq polymerase (5 U) (1 U), 0.125 pmoles of Tth polymerase (2.5 U) or 0.05 pmoles of TZ05 polymerase (1 U), oligonucleotide inhibitor (at varying concentrations), […] dNTPs in either Tris or Tricine buffer (Taq and Tth pol) or TZ05 buffer (TZ05 pol). Gel purified, 5'-end-labeled hairpin DNA substrate (DNA-HP; 5'-[…]-3' (SEQ ID NO:6)) was then added to a final concentration of 250 nM and the reactions were incubated for a given time at the desired temperature as indicated in the figure legends (30 minutes for TZ05 pol). The reaction was stopped by adding 5 μL of 0.5 M EDTA (pH 8.0) followed by formamide gel loading buffer. Extension products were resolved on 10% polyacrylamide gels under denaturing conditions and quantitated by phosphorimager. The amount of products formed in the presence of inhibitor was normalized to the product formed in the absence of an inhibitor to obtain the percent of product.

[8] = biological target: T1, Taq DNA polymerase; assay: FP filter; 55C; IT50 52C; details: tags: rTaq, 94 kDa, Roche Molecular Systems; label: end-labeled
[9] = biological target: T1, Taq DNA polymerase; assay: FP filter; Tris buffer 55C; 5 pM at 40C; Tricine 4.6 (40C), 36 (55C) pM; IT50 54.8C; details: tags: rTaq, 94 kDa, Roche Molecular Systems; label: end-labeled
Protocol: as §1, §2

[10] = biological target: T1, Taq DNA polymerase; assay: FP filter; 55C; IT50 52.3C; details: tags: rTaq, 94 kDa, Roche Molecular Systems; label: end-labeled
[11] = biological target: T1, Taq DNA polymerase; assay: FP filter; Tris buffer 55C; 3.8 pM at 40C; Tricine 5.6 (40C), 18 (55C) pM; IT50 56C; details: tags: rTaq, 94 kDa, Roche Molecular Systems; label: end-labeled
Protocol: as §1, §2

[12] = biological target: T1, Taq DNA polymerase; assay: inhibition; 45C; IT50 56.1C; details: tags: rTaq, 94 kDa, Roche Molecular Systems; label: end-labeled
Protocol: as §3, §4

T1 sequence (P19821 whole entry, one chain of several): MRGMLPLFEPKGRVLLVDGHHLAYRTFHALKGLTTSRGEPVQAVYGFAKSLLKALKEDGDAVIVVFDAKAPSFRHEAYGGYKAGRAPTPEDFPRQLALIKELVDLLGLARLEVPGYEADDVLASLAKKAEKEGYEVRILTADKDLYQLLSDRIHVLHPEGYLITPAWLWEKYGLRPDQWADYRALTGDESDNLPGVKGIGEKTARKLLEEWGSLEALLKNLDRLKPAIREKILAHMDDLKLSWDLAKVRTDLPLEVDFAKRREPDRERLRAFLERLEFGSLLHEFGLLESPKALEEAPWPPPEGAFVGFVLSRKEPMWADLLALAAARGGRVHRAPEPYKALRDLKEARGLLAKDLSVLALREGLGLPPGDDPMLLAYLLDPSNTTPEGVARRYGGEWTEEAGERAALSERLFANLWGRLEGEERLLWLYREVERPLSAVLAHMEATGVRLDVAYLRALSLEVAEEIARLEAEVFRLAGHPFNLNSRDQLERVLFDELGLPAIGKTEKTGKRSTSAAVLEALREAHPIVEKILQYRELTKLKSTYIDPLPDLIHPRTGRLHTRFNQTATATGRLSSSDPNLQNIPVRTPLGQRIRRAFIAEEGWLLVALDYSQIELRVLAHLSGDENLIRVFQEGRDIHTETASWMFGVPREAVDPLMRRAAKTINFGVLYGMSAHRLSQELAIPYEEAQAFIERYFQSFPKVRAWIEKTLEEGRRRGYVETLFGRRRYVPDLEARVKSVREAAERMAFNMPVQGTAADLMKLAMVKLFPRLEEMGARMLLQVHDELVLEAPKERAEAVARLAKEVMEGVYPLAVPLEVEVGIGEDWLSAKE

B1: ligand 18 (ssDNA)
DNA: TTCTCGGTTGGTCTCTGGCGGAGCATACACGACGTCATTCTAGCGTTTTGTCTTGTGTATGATTCGCTTTTCCC
For B1, the Kd [1] was > 1 nM.

B2: ligand 20 (ssDNA)
DNA: TTCTCGGTTGGTCTCTGGCGGAGCGATCAGACACGAAACATTGCGGACTTTTGTCTTGTGTATGATTCGCTTTTCCC
B2 was tested, and the Kd [2] was 0.105 nM.

B3: ligand 10 (ssDNA)
DNA: TTCTCGGTTGGTCTCTGGCGGAGCGGATCAGACACGAAACATTGCGGACTTTTGTCTTGTGTATGATTCGCTTTTCCC
Binder B3 has a Kd [3] of 0.03 nM.

AAGACCAGACAATGTACAGTATTGGCCTGA (ssDNA, [none]) [Trnc.A-30 (30-mer)] was tested, and the Kd [4] was 0.6 nM.

B4: ligand 19 (ssDNA)
DNA: TTCTCGGTTGGTCTCTGGCGGAGCGAATCGGACATCAAGGGTTCCAGCAGTGCTTCTTGTGTATGATTCGCTTTTCCC
With B4 the Kd [5] was 0.0112 nM.

B5: ligand 28 (TQH28) (ssDNA)
DNA: TTCTCGGTTGGTCTCTGGCGGAGCAGGAGCAAGAATCATTCTTAGCGTTTTGATTCTTGTGTATGATTCGCTTTTCCC
B5 gave a Kd [6] of 0.0135 nM and an IC50 [7] of 37 nM.

B6: ligand 36 (Taq selection) (ssDNA)
DNA: TTCTCGGTTGGTCTCTGGCGGAGCAGAAGCAAGAATCATTCTTAGCGTTTTGATTCTTGTGTATGATTCGCTTTTCCC
Binder B6 has a Kd [8] of 0.031 nM.

B7: ligand 6 (TQH6) (ssDNA)
DNA: TTCTCGGTTGGTCTCTGGCGGAGCGAATCATACGAAGACATTCCAACGTTTTGTCTTGTGTATGATTCGCTTTTCCC
Binder B7 has a Kd [9] of 0.0085 nM and an IC50 [7] of 30 nM.

B8: ligand 15 (ssDNA)
DNA: TTCTCGGTTGGTCTCTGGCGGAGCATGCACAGCGACATTCTCAGCGTTTTGTCGTCTTGTGTATGATTCGCTTTTCCC
B8 was tested, and the Kd [10] was 0.0138 nM.

B9: ligand 22 (TQH22) / TZ3 (ssDNA)
DNA: TTCTCGGTTGGTCTCTGGCGGAGCATACACGACGTCATTCTAGCGTTTTGACGTCTTGTGTATGATTCGCTTTTCCC
B9 gave a Kd [11] of 0.014 nM and an IC50 [12] of 37 nM.
